Measured values as given in patent publication US20230416363A1 (KADMON, published 2023).
Residue numbers refer to the chain shown, from its start.

Columns and labels:
[1] = target: T1, mouse PD-1 expressed on cells (mouse, UniProt Q02242 25-288); test: cell-based or functional assay
T1 sequence (looked up): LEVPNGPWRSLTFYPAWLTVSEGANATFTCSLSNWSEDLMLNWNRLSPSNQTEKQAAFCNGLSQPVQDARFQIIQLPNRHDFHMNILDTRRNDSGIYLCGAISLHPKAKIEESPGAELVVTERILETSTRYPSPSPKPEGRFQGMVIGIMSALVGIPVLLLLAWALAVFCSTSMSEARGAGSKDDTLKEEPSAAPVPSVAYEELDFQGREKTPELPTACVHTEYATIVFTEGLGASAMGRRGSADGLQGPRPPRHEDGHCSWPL

[2] = target: T2, human PD-1 expressed on cells (human, UniProt Q15116 25-288); test: cell-based or functional assay
T2 sequence (Q15116 25-288): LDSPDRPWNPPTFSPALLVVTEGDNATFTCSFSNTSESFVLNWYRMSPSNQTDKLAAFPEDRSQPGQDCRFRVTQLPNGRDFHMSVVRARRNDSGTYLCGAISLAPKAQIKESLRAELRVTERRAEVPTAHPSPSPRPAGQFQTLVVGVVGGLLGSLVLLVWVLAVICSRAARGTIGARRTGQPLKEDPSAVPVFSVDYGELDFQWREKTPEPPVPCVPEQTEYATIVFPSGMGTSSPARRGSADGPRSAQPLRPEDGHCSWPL

[3] = target: T2, human PD-1 expressed on cells; test: flow cytometry, hPD1-293 cells
[4] = target: T3, hPD1 (soluble, ELISA of Example 20) (human, UniProt Q15116 25-167, limits assumed); test: blocking ELISA, hPD1 to hPDL1
T3 sequence (Q15116 25-167 limits assumed): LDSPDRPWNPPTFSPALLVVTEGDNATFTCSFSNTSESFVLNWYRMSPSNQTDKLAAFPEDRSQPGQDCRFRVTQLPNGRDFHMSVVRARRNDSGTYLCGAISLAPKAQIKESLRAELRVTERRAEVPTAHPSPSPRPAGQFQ

[5] = target: T1, mouse PD-1 expressed on cells; test: flow cytometry, mPD1-293 cells
[6] = target: T1, mouse PD-1 expressed on cells; test: flow cytometry, mPD1-eff cells
mPD-1-his [7] = target: T4, mPD-1-his (mouse, UniProt Q02242 25-167, limits assumed); test: SPR Biacore, mPD1-his
T4 construct: domain: IgV domain
T4 sequence: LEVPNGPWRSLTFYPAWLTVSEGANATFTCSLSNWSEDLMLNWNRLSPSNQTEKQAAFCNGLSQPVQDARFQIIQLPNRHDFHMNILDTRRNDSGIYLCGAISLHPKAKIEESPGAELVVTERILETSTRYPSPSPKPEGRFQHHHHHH

mPD-1-Fc [8] = target: T5, mPD-1-Fc (mouse; human, UniProt Q02242 25-167, limits assumed); test: SPR Biacore, mPD1-Fc
T5 construct: domain: IgV domain; not shown: human IgG1 Fc
T5 sequence (looked up): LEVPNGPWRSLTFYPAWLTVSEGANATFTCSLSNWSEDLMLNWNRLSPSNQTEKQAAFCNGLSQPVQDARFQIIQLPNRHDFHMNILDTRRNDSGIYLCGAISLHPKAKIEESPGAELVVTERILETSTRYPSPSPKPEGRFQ

[9] = target: T3, hPD1 (soluble, ELISA of Example 20); test: ELISA, hPD1
[10] = target: T6, mPD1 (soluble, ELISA of Examples 20 and 24) (mouse, UniProt Q02242 25-167, limits assumed); test: blocking ELISA, mPD1 to mPDL1
T6 construct: also called Biotin-mPD1
T6 sequence (looked up): T5 sequence (looked up)

[11] = target: T6, mPD1 (soluble, ELISA of Examples 20 and …); test: ELISA, mPD1
[12] = target: T6, mPD1 (soluble, ELISA of Examples 20 and …); test: ELISA, biotin-mPD1 on streptavidin
hPD-1-Fc = target: T7, hPD-1-Fc (human, UniProt Q15116 25-167); test: SPR Biacore, hPD1-Fc
T7 construct: domain: IgV domain; also called human PD-1-Fc; not shown: human IgG1 Fc
T7 sequence (Q15116 25-167 limits assumed): as the sequence (Q15116 25-167 limits assumed) above

mPD-1-Fc [13] = target: T5, mPD-1-Fc; test: kinetics, mPD-1-Fc (off rate outside the machine limit)
[14] = target: T6, mPD1 (soluble, ELISA of Examples 20 and …); test: ELISA, dose-response binding to mPD-1
[15] = target: T1, mouse PD-1 expressed on cells; test: cell-based or functional assay; remark: listed apart in the source
mPD-1-his [16] = target: T4, mPD-1-his; test: kinetics (Ka/Kd/KD; method not named), mPD-1-his
[17] = target: T1, mouse PD-1 expressed on cells; test: flow cytometry on mPD-1-HEK293 cells
[18] = target: T6, mPD1 (soluble, ELISA of Examples 20 and …); test: competition ELISA, blocking of mPD-L1 binding to mPD-1

B1: m2C1 (antibody, V domains shown)
VH: QVQLVQSGAEVKKPGASVKVSCKASGHTFTSYYIHWVRQAPGQGLEWMGIINPSGGSTSYAQKFQGRVTMTRDTSTSTVYMELSSLRSEDTAVYYCARDRAYGGAGDYWGQGTLVTVSS
VL: DIQMTQSPSSLSASVGDRVTITCRASRSISSWLAWYQQKPGKAPKLLIYAASSLQSGVPSRFSGSGSGTDFTLTISSLQPEDFATYYCQQSYSIPATFGQGTKVEIK
notes: R3A9 derivative; also called m3CM (apparent misprint)
IC50, Promega blockade bioassay [1]: 1.13 nM | IC50, Promega blockade bioassay [2]: 31.2 nM | EC50 [3]: 1.26 nM | IC50 [4]: 5.71 nM | EC50 [5]: 0.411 nM | EC50 [6]: 0.373 nM | Kd (mPD-1-his [7]): 3.22 nM | koff (mPD-1-his [7]): 0.000693 s⁻¹ | kon (mPD-1-his [7]): 215000 M⁻¹ s⁻¹ | Kd (mPD-1-Fc [8]): 2.91 nM | koff (mPD-1-Fc [8]): 0.000583 s⁻¹ | kon (mPD-1-Fc [8]): 200000 M⁻¹ s⁻¹ | EC50 [9]: 0.149 nM | IC50 [10]: 0.464 nM | EC50 [11]: 0.572 nM | EC50 [12]: 0.291 nM | Kd (hPD-1-Fc): 2.81 nM | koff (hPD-1-Fc): 0.000355 s⁻¹ | kon (hPD-1-Fc): 126000 M⁻¹ s⁻¹

B2: m2A1 (antibody, V domains shown)
VH: B1 VH
VL: B1 VL with S28G, I94P, A96W
notes: R3A9 derivative; also called m2AM (apparent misprint)
EC50 [3]: 0.987 nM | IC50 [4]: 6.01 nM | EC50 [5]: 0.433 nM | EC50 [6]: 0.253 nM | Kd (mPD-1-his [7]): 2.83 nM | koff (mPD-1-his [7]): 0.00107 s⁻¹ | kon (mPD-1-his [7]): 375000 M⁻¹ s⁻¹ | Kd (mPD-1-Fc [8]): 2.73 nM | koff (mPD-1-Fc [8]): 0.000905 s⁻¹ | kon (mPD-1-Fc [8]): 333000 M⁻¹ s⁻¹ | EC50 [9]: 0.146 nM | IC50 [10]: 0.442 nM | EC50 [11]: 0.304 nM | EC50 [12]: 0.14 nM | Kd (hPD-1-Fc): 1.67 nM | koff (hPD-1-Fc): 0.000401 s⁻¹ | kon (hPD-1-Fc): 240000 M⁻¹ s⁻¹

B3: 2C-m3A7/IL-15 (other)
light: DIQMTQSPSSLSASVGDRVTITCRASRSISNWLAWYQQKPGKAPKLLIYAASSLQSGVPSRFSGSGSGTDFTLTISSLQPEDFATYYCQQSYSAPVTFGQGTKVEIKRADAAPTVSIFPPSSEQLTSGGASVVCFLNNFYPKDINVKWKIDGSERQNGVLNSWTDQDSKDSTYSMSSTLTLTKDEYERHNSYTCEATHKTSTSPIVKSFNRNEC
heavy: QVQLVQSGAEVKKPGASVKVSCKASGHTFTSYYIHWVRQAPGQGLEWMGIINPSGGSTSYAQKFQGRVTMTRDTSTSTVYMELSSLRSEDTAVYYCARDRAYGGAGDYWGQGTLVTVSSAKTTAPSVYPLAPVCGDTTGSSVTLGCLVKGYFPEPVTLTWNSGSLSSGVHTFPAVLQSDLYTLSSSVTVTSSTWPSQSITCNVAHPASSTKVDKKIEPRGPTIKPCPPCKCPAPNAAGGPSVFIFPPKIKDVLMISLSPIVTCVVVDVSEDDPDVQISWFVNNVEVHTAQTQTHREDYNSTLRVVSALPIQHQDWMSGKEFKCKVNNKDLGAPIERTISKPKGSVRAPQVYVLPPPEEEMTKKQVTLTCMVTDFMPEDIYVEWTNNGKTELNYKNTEPVLDSDGSYFMYSKLRVEKKNWVERNSYSCSVVHEGLHNHHTTKSFSRTPGSCPPPVSIEHADIRVKNYSVNSRERYVCNSGFKRKAGTSTLIECVINKNTNVAHWTTPSLKCIRDPALVHQRPAPPSGGSGGGGSGGGSGGGGSLQNWIDVRYDLEKIESLIQSIHIDTTLYTDSDFHPSCKVTAMNCFLLELQVILHEYSNMTLNETVRNVLYLANSTLSSNKNVAESGCKECEELEEKTFTEFLQSFIRIVQMFINTS
notes: antibody-cytokine fusion
Kd (mPD-1-Fc [13]): 0.0593 nM | EC50 (read off the curve) [14]: ~0.2 nM | EC50 (read off the curve) [15]: ~0.7 nM | Kd (mPD-1-his [16]): 0.247 nM | EC50 (read off the curve) [17]: ~1 nM | IC50 (read off the curve) [18]: ~0.2 nM

B4: 2N-m3A7/IL-15 (other)
light: B3 light
heavy: ITCPPPVSIEHADIRVKNYSVNSRERYVCNSGFKRKAGTSTLIECVINKNTNVAHWTTPSLKCIRDPALVHQRPAPPSGGSGGGGSGGGSGGGGSLQNWIDVRYDLEKIESLIQSIHIDTTLYTDSDFHPSCKVTAMNCFLLELQVILHEYSNMTLNETVRNVLYLANSTLSSNKNVAESGCKECEELEEKTFTEFLQSFIRIVQMFINTSGGGGSGGGGSGGGGSGGGGSGGGGSGGGGSQVQLVQSGAEVKKPGASVKVSCKASGHTFTSYYIHWVRQAPGQGLEWMGIINPSGGSTSYAQKFQGRVTMTRDTSTSTVYMELSSLRSEDTAVYYCARDRAYGGAGDYWGQGTLVTVSSAKTTAPSVYPLAPVCGDTTGSSVTLGCLVKGYFPEPVTLTWNSGSLSSGVHTFPAVLQSDLYTLSSSVTVTSSTWPSQSITCNVAHPASSTKVDKKIEPRGPTIKPCPPCKCPAPNAAGGPSVFIFPPKIKDVLMISLSPIVTCVVVDVSEDDPDVQISWFVNNVEVHTAQTQTHREDYNSTLRVVSALPIQHQDWMSGKEFKCKVNNKDLGAPIERTISKPKGSVRAPQVYVLPPPEEEMTKKQVTLTCMVTDFMPEDIYVEWTNNGKTELNYKNTEPVLDSDGSYFMYSKLRVEKKNWVERNSYSCSVVHEGLHNHHTTKSFSRTPGK
notes: antibody-cytokine fusion
Kd (mPD-1-Fc [13]): 0.00909 nM | EC50 (read off the curve) [14]: ~0.3 nM | EC50 (read off the curve) [15]: ~2 nM | Kd (mPD-1-his [16]): 0.283 nM | EC50 (read off the curve) [17]: ~1 nM | IC50 (read off the curve) [18]: ~0.3 nM

B5: 1N-m3A7/IL-15 (other)
light: B3 light
heavy 1: QVQLVQSGAEVKKPGASVKVSCKASGHTFTSYYIHWVRQAPGQGLEWMGIINPSGGSTSYAQKFQGRVTMTRDTSTSTVYMELSSLRSEDTAVYYCARDRAYGGAGDYWGQGTLVTVSSAKTTAPSVYPLAPVCGDTTGSSVTLGCLVKGYFPEPVTLTWNSGSLSSGVHTFPAVLQSDLYTLSSSVTVTSSTWPSQSITCNVAHPASSTKVDKKIEPRGPTIKPCPPCKCPAPNAAGGPSVFIFPPKIKDVLMISLSPIVTCVVVDVSEDDPDVQISWFVNNVEVHTAQTQTHREDYNSTLRVVSALPIQHQDWMSGKEFKCKVNNKDLGAPIERTISKPKGSVRAPQVYVYPPPEEEMTKKQVTLTCMVTDFMPEDIYVEWTNNGKTELNYKNTEPVLDSDGSYAMVSKLRVEKKNWVERNSYSCSVVHEGLHNHHTTKSFSRTPGK
heavy 2: B4 heavy with T609L, K635L, T637W
notes: antibody-cytokine fusion
Kd (mPD-1-Fc [13]): 0.0878 nM | EC50 (read off the curve) [14]: ~0.2 nM | EC50 (read off the curve) [15]: ~0.8 nM | Kd (mPD-1-his [16]): 0.457 nM | EC50 (read off the curve) [17]: ~0.8 nM | IC50 (read off the curve) [18]: ~0.3 nM

B6: 1C-m3A7/IL-15 (other)
light: B3 light
heavy 1: B5 heavy 1
heavy 2: B3 heavy with T368L, K394L, T396W
notes: antibody-cytokine fusion
Kd (mPD-1-Fc [13]): 0.0927 nM | EC50 (read off the curve) [14]: ~0.1 nM | EC50 (read off the curve) [15]: ~0.6 nM | Kd (mPD-1-his [16]): 0.296 nM | EC50 (read off the curve) [17]: ~0.7 nM | IC50 (read off the curve) [18]: ~0.3 nM
